Experimental data from patent US10370433B2, “Compositions and methods for diagnosis and treatment of cancer” (BIONTECH AG, priority 2015, dated 2019).

Tests used:
[1] = biological target: T1, recombinant human Seprase (rhuSeprase) (Homo sapiens, UniProt Q12884); assay: Surface plasmon resonance (Biacore T100) on immobilized rhuSeprase; assay type: binding
T1 construct: named pCEP4-IgKappa-huSeprase-coCHO_26-760aa-H6 and used for the generation of recombinant soluble human Seprase (rhuSeprase); mouse Ig kappa-chain V-J2-C secretion signal (N, cleaved yes); made in house; host or cells: FreeStyle CHO-S cells (transient transfection; purified from supernatant by Ni-chelate and SEC)
T1 sequence (Q12884 26-760): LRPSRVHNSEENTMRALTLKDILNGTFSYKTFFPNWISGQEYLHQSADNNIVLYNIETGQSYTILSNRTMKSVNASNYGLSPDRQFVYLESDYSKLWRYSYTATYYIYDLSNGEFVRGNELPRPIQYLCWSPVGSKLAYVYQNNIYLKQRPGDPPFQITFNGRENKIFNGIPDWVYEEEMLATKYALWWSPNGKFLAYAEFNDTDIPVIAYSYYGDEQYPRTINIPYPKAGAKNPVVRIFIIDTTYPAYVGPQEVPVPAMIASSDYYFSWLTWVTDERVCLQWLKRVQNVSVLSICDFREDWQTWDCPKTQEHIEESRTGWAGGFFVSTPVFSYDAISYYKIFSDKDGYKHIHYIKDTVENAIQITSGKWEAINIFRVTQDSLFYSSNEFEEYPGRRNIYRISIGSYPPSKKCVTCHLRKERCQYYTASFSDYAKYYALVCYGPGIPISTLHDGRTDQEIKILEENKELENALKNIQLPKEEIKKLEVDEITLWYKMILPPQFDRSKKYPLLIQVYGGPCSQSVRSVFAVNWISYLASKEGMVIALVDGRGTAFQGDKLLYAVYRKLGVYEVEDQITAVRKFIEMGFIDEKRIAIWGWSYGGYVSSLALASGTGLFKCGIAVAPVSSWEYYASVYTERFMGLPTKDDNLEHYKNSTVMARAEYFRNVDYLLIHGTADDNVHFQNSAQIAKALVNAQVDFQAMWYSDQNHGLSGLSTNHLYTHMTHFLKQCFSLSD

CHO-K1-huSeprase tumors = assay: Biodistribution and tumor targeting of AlexaFluor-680 conjugates, near-infrared optical imaging; assay type: in vivo, Fox n1 nu mice
Experimental: For in vivo imaging assays female Fox n1 nu mice (6-8 weeks of age, Harlan, Envigo) were used. The experiments were performed according to national regulations and approved by the local animal experiments ethical committee. Subconfluent CHO-K1-huSeprase cells were harvested and resuspended in PBS to a density of 1×10^7 cells/ml. Prior to inoculation, cell viability was tested by 0.4% trypan blue exclusion assay (viable cells>90%). For subcutaneous injection 1×10^6 CHO-K1-huSeprase cells in 100 μl PBS were mixed with 100 μl Matrigel (Corning) and injected into the right side of the limb. When tumor volumes reached 600-800 mm^3, animals were randomly separated into several groups for different treatments (n=3 per each group). […] At different time points after the injection, mice were anaesthetized by inhalation of isoflurane. In vivo imaging was conducted using a Xenogen IVIS Spectrum imaging System (Perkin Elmer, USA). Maximal near infrared signals (NIRF) were quantified using Living Image 2.5 (Xenogen, Perkin Elmer) image analysis software. For ex vivo NIRF imaging, the mice were sacrificed, and the tumor and major organs of each mouse were excised, weighed and analyzed by Xenogen IVIS System.
To analyze the pharmacokinetic and tumor targeting properties of the AF680-(MC-FA-012)3 trimer biodistribution in female Fox n1 nu mice was monitored at six time points after injection (1, 2, 4, 6, 24 and 96 h). […] After each time point biodistibution was measured in vivo and ex vivo using a Xenogen Imaging system (FIG. 14 A+B). […] Overall, the background signals for the binder and for the non-binding control were in the same range.

B1: AF680-(MC-FA-012)3: AlexaFluor 680 conjugated MC-FA-012 trimer (conjugate)
chain 1: GACPYSNWTPGRGPDCRRDSDCPGRCICRGNGYCG
chain 2: GACPYSNWTPGRGPDCRRDSDCPGRCICRGNGYCG
chain 3: GACPYSNWTPGRGPDCRRDSDCPGRCICRGNGYCG
modifications: left off: things letters cannot carry; small tags and cut ends
notes: AlexaFluor 680 conjugated MC-FA-012 trimer
- offrate, times slower compared to MC-FA-012 [1]: around 134 times
- ka ([1]; 1:1 binding model): 1.68e+07 M⁻¹ s⁻¹
- kidney signals (CHO-K1-huSeprase tumors; mouse, in vivo): strong kidney signals
- signals in lung, heart, spleen and liver (CHO-K1-huSeprase tumors; mouse, in vivo): generally low
- tumor uptake (CHO-K1-huSeprase tumors; up to 24 h after injection): specific and significant tumor uptake
